Laboratory results: patent publication US20230270877A1 (Seagen, published 2023)

Target: T1, human FcγRIIIa (human, UniProt P08637 17-254)
T1 construct: whole, on cells
Test: flow cytometry on CHO cells transfected with human FcγRIIIa, PE anti-human IgG Fc secondary, GEO mean fluorescence

T1 sequence (P08637 17-254): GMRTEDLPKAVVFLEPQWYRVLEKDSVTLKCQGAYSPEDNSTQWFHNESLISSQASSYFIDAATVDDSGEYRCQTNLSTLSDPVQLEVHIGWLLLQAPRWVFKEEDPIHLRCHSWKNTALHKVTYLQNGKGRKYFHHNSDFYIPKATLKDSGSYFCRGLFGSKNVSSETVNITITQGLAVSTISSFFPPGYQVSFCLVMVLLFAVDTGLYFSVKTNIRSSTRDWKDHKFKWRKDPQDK

B1: SEA-CD40 (nonfucosylated hS2C6) (antibody, human IgG1, kappa)
heavy: not shown
light: DIQMTQSPSSLSASVGDRVTITCRSSQSLVHSNGNTFLHWYQQKPGKAPKLLIYTVSNRFSGVPSRFSGSGSGTDFTLTISSLQPEDFATYFCSQTTHVPWTFGQGTKVEIKRTVAAPSVFIFPPSDEQLKSGTASVVCLLNNFYPREAKVQWKVDNALQSGNSQESVTEQDSKDSTYSLSSTLTLSKADYEKHKVYACEVTHQGLSSPVTKSFNRGEC
notes: also called nonfucosylated humanized S2C6
B1 was tested, and the “EC50 (read off the curve)” value was ~1 µg/mL.
